Laboratory results as given in paper PMC10127746, “Genetic Dissection of Budding Yeast PCNA Mutations Responsible for the Regulated Recruitment of Srs2 Helicase” (mBio, 2023).

T1: His6-tagged Pol30 (S. cerevisiae, UniProt P15873 1-258)
T1 construct: Pol30 (PCNA), S. cerevisiae, POL30 ORF cloned into BamHI-SacI sites of pET30a; also called His6-Pol30; PCNA; source: E. coli BL21, purified (Ni Sepharose)
T1 sequence (looked up): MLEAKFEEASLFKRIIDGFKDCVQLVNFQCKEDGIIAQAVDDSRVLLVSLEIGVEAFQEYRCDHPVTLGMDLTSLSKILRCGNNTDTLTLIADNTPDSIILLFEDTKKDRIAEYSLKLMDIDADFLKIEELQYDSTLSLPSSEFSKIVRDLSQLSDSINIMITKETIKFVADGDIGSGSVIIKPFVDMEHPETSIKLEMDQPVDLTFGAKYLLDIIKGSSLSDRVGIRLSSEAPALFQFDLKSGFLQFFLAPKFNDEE

T2: His6-tagged Pol30-K164R (S. cerevisiae, UniProt P15873 1-258, K164R)
T2 construct: Pol30 (PCNA), S. cerevisiae, POL30 ORF in pET30a, mutant derivative; The methods describe only the wild-type pET-Pol30; source: E. coli BL21, purified (Ni Sepharose)
T2 sequence (looked up): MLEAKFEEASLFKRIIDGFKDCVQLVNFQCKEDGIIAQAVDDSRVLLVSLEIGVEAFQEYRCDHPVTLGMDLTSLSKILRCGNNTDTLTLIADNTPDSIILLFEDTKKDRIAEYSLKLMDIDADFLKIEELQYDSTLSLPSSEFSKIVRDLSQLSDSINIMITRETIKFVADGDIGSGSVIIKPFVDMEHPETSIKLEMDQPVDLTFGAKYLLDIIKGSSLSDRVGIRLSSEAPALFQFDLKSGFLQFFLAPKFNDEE

T3: His6-tagged Pol30-A171D (S. cerevisiae, UniProt P15873 1-258, A171D)
T3 construct: Pol30 (PCNA), S. cerevisiae, POL30 ORF in pET30a, mutant derivative; The methods describe only the wild-type pET-Pol30; source: E. coli BL21, purified (Ni Sepharose)
T3 sequence (looked up): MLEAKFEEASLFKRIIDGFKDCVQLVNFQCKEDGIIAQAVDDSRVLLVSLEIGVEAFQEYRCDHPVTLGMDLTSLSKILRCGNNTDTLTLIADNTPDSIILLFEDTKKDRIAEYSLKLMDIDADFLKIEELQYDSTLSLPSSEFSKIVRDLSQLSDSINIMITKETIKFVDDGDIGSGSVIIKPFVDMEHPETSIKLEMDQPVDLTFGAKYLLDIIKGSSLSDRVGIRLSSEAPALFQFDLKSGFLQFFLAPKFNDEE

T4: His6-tagged Pol30-I128A (S. cerevisiae, UniProt P15873 1-258, I128A)
T4 construct: Pol30 (PCNA), S. cerevisiae, POL30 ORF in pET30a, mutant derivative; source: E. coli BL21, purified (Ni Sepharose)
T4 sequence (looked up): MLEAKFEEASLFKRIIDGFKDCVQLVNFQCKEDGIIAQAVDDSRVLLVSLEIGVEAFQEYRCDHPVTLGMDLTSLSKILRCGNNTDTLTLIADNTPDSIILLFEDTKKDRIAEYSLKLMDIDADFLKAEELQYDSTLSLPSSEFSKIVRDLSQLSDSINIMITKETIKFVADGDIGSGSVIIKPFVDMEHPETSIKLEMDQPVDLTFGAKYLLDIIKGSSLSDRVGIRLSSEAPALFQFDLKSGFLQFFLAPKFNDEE


Key:
Experiment in all cases: pull-down; GST pulldown; equal molars of GST-Srs2-CT or GST-Rad30-PIP and His6-Pol30 coincubated overnight at 4°C; Western blot with anti-His6 and anti-GST
Conditions in all cases: both partners purified
His6-tagged Pol30 = molecular target: T1, His6-tagged Pol30
His6-tagged Pol30-K164R = molecular target: T2, His6-tagged Pol30-K164R
His6-tagged Pol30-A171D = molecular target: T3, His6-tagged Pol30-A171D
His6-tagged Pol30-I128A = molecular target: T4, His6-tagged Pol30-I128A

binding result (His6-tagged Pol30)	binding result (His6-tagged Pol30-K164R)	binding result (His6-tagged Pol30-A171D)	binding result (His6-tagged Pol30-I128A)	Binder
binds	binds	binds	binds	GST-tagged Rad30-PIP (domain or fragment, S. cerevisiae, UniProt Q04049 515-632, looked up, Rad30 (DNA polymerase eta), S. cerevisiae, residues 515 to 632, cloned into BamHI-EcoRI sites of pGEX6; also called GST-Rad30-PIP; Rad30-PIP domain; source: E. coli BL21, purified (glutathione Sepharose)) VVDMFGNQVHTFKSSAGKEDEEKTTSSKADEKTPKLECCKYQVTFTDQKALQEHADYHLALKLSEGLNGAEESSKNLSFGEKRLLFSRKRPNSQHTATPQKKQVTSSKNILSFFTRKK
binds	binds	–	binds	GST-tagged Srs2 C-terminal domain (Srs2-CT) (domain or fragment, S. cerevisiae, UniProt P12954 1107-1174, looked up, Srs2 DNA helicase, S. cerevisiae, residues 1107 to 1174, cloned into BamHI-EcoRI sites of pGEX6; Holds the atypical PIP box and the SIM; also called GST-Srs2-CT; Srs2 C terminus; source: E. coli BL21, purified (glutathione Sepharose)) HNPDDTTVDNRPIISNAKFLADAAMKKTQKFSKKVKNEPASSQMDIFSQLSRAKKKSKLNNGEIIVID
